Key:
[1] = biological target: h12H4 light chain P95Gz mutant; assay: competitive ELISA; row P95Gz (light chain CDR3 mutant of h12H4); reference wt h12H4
[2] = biological target: h12H4 heavy chain Y52aF mutant; assay: competitive ELISA; row Y52aF (heavy chain CDR2 mutant of h12H4); reference wt h12H4
[3] = biological target: h12H4 heavy chain P52bG mutant; assay: competitive ELISA; row P52bG (heavy chain CDR2 mutant of h12H4); reference wt h12H4
h12H4 heavy chain P52bG mutant, sequence (VH, as listed by the source limits assumed, chain 1 of 2): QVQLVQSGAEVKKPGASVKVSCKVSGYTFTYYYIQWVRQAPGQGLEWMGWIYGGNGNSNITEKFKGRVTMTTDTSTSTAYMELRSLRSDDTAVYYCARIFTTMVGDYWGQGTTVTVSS
h12H4 heavy chain P52bG mutant, sequence (VL, as listed by the source limits assumed, chain 2 of 2): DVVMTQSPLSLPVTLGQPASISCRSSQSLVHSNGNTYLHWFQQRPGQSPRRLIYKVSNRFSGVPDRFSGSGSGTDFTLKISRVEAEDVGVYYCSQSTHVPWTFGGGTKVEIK

h12H4 heavy chain Y52aF mutant, sequence (VH, as listed by the source limits assumed, chain 1 of 2): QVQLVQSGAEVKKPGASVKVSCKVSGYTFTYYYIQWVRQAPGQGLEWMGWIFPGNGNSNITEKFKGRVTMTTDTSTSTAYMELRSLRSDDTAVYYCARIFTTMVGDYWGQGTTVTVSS
h12H4 heavy chain Y52aF mutant, sequence (VL, as listed by the source limits assumed, chain 2 of 2): as the sequence (VL, as listed by the source limits assumed, chain 2 of 2) above
h12H4 light chain P95Gz mutant, sequence (VH, as listed by the source, chain 1 of 2): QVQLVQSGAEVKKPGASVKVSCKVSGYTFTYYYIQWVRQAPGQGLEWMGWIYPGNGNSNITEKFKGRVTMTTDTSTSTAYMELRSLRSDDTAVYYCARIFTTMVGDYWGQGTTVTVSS
h12H4 light chain P95Gz mutant, sequence (VL, as listed by the source, chain 2 of 2): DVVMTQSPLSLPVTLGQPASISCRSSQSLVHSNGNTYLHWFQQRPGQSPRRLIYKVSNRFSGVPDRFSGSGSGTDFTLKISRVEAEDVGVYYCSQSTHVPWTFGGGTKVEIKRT

## SVNVDKQPKYEYSL [peptide … (hCE3C peptide, without the N-terminal Cys)]
[1]
  IC50 ratio (mutant/wt) (ratio (mutant/wt)): 1.5
[2]
  IC50 ratio (mutant/wt) (ratio (mutant/wt)): 1.4
[3]
  IC50 ratio (mutant/wt) (ratio (mutant/wt)): 1

Source: patent publication US20210221876A1
